The text below walks through data of patent publication US20140087995A1 (published 2014).

In general, IC50 refers to the midpoint of a concentration-inhibition curve.

Numbered stars: 1 amine (or outer) side, 2 acyl side, 3 side chain; on linkers, the order of the positions; unused ones are H or OH. Bridge positions count the residues as written; N and C are the ends. Side chains are listed from the residue outwards. Ends that are not written are not given here. * marks the point of attachment. C20 diacid = O=C(O)CCCCCCCCCCCCCCCCCCC(=O)*; γGlu = O=C(O)[C@H](CCC(=O)[*:2])N[*:1]

Assay [1] deals with T1, human amylin receptor (amylin 3(a) receptor: human calcitonin receptor with RAMP-3) (human, UniProt P30988 25-474; O60896 24-148, limits assumed).
T1 construct: whole, on cells; Whole cells in the luciferase assay (Assay II a); also called hAmylin-R; hAmylinR
T1 sequence (looked up) 1: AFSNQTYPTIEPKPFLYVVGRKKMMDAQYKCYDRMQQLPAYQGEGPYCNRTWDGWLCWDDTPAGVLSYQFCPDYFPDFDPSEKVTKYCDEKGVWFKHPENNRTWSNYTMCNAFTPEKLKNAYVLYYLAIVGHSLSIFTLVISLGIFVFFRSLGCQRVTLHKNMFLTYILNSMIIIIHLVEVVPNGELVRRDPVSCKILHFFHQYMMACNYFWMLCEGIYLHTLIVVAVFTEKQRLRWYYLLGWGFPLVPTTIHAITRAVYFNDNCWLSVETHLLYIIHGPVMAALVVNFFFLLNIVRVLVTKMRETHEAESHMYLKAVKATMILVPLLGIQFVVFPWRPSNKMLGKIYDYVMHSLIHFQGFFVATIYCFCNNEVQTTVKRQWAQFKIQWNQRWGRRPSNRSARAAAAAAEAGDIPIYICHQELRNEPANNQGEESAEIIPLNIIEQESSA
T1 sequence (looked up) 2: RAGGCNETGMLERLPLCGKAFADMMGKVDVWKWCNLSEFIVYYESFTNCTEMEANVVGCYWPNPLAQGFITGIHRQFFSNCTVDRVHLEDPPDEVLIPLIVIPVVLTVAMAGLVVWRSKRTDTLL
Kind of assay: SPA competition binding on membranes of BHK cells with human calcitonin receptor + RAMP-3; displacement of 125I-rat amylin (Assay V). The essentials: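 Membranes from BHK Amylin 3(a)/CRE-luc cells (35 ng/μL final) were mixed with SPA beads and test compounds in 50 mM Hepes pH 7.4 with 1 mM CaCl2, 5 mM MgCl₂, 0.1% OA and 0.02% Tween20. Incubation ran 120 min at 25° C with shaking; IC₅₀ came from one-site competition fitting.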
In general terms: In a radioligand displacement assay an active substance lowers the binding of a labelled ligand.

For assay [2], the target named is T2, human calcitonin receptor (human, UniProt P30988 25-474).
T2 sequence (looked up): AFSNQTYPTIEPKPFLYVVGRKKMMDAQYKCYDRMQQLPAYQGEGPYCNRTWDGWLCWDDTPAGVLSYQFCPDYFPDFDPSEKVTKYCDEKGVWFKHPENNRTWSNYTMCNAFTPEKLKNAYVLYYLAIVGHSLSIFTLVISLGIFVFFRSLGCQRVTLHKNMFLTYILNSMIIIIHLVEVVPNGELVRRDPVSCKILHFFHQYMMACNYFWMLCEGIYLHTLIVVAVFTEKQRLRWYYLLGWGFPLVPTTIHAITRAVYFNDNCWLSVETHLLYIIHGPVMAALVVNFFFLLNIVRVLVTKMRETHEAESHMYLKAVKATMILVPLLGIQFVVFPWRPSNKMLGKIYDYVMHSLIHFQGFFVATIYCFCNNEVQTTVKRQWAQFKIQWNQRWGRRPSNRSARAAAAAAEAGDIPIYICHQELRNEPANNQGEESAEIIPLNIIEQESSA
Kind of assay: cell-based or functional assay.

B1: N^α1-[(4S)-4-carboxy-4-(19-carboxynonadecanoylamino)butanoyl]-[Glu14,Arg17,Pro21,Pro27,Pro29]-h-amylin (peptide)
peptide: {C20 diacid-γGlu}-KCNTATCATQRLAEFLRHSSPNFGAIPSPTNVGSNTY-NH2
modifications: disulfide 2-7
SMILES: CC[C@H](C)[C@H](NC(=O)[C@H](C)NC(=O)CNC(=O)[C@H](Cc1ccccc1)NC(=O)[C@H](CC(N)=O)NC(=O)[C@@H]1CCCN1C(=O)[C@H](CO)NC(=O)[C@H](CO)NC(=O)[C@H](Cc1c[nH]cn1)NC(=O)[C@H](CCCNC(=N)N)NC(=O)[C@H](CC(C)C)NC(=O)[C@H](Cc1ccccc1)NC(=O)[C@H](CCC(=O)O)NC(=O)[C@H](C)NC(=O)[C@H](CC(C)C)NC(=O)[C@H](CCCNC(=N)N)NC(=O)[C@H](CCC(N)=O)NC(=O)[C@@H](NC(=O)[C@H](C)NC(=O)[C@@H]1CSSC[C@H](NC(=O)[C@H](CCCCN)NC(=O)CC[C@H](NC(=O)CCCCCCCCCCCCCCCCCCC(=O)O)C(=O)O)C(=O)N[C@@H](CC(N)=O)C(=O)N[C@@H]([C@@H](C)O)C(=O)N[C@@H](C)C(=O)N[C@@H]([C@@H](C)O)C(=O)N1)[C@@H](C)O)C(=O)N1CCC[C@H]1C(=O)N[C@@H](CO)C(=O)N1CCC[C@H]1C(=O)N[C@H](C(=O)N[C@@H](CC(N)=O)C(=O)N[C@H](C(=O)NCC(=O)N[C@@H](CO)C(=O)N[C@@H](CC(N)=O)C(=O)N[C@H](C(=O)N[C@@H](Cc1ccc(O)cc1)C(N)=O)[C@@H](C)O)C(C)C)[C@@H](C)O
notes: also called compound 37
Regarding B1, the IC50 in assay [1] worked out at 970 pM. Moreover, in assay [2], the “Ratio hCT/hAmylin funct.” value is 4 ratio.

B2: N^α1-[(4S)-4-carboxy-4-(19-carboxynonadecanoylamino)butanoyl]-[Glu14,Arg17,Pro21,Pro27,Pro37]-h-amylin (peptide)
peptide: {C20 diacid-γGlu}-KCNTATCATQRLAEFLRHSSPNFGAIPSSTNVGSNTP-NH2
modifications: disulfide 2-7
notes: also called compound 8
B2: in assay [1], the IC50 was found to be 72 pM. For the same molecule, the “Ratio hCT/hAmylin funct.” value in assay [2] came out at 1.1 ratio.

B3: N^ε1-[(4S)-4-carboxy-4-(19-carboxynonadecanoylamino)butanoyl]-[Ala14,Arg17,Pro21,Pro27,Pro34]-h-amylin (peptide)
peptide: K([γGlu-C20 diacid])CNTATCATQRLAAFLRHSSPNFGAIPSSTNVGPNTY-NH2
modifications: disulfide 2-7; N-terminus assumed
SMILES: CC[C@H](C)[C@H](NC(=O)[C@H](C)NC(=O)CNC(=O)[C@H](Cc1ccccc1)NC(=O)[C@H](CC(N)=O)NC(=O)[C@@H]1CCCN1C(=O)[C@H](CO)NC(=O)[C@H](CO)NC(=O)[C@H](Cc1c[nH]cn1)NC(=O)[C@H](CCCNC(=N)N)NC(=O)[C@H](CC(C)C)NC(=O)[C@H](Cc1ccccc1)NC(=O)[C@H](C)NC(=O)[C@H](C)NC(=O)[C@H](CC(C)C)NC(=O)[C@H](CCCNC(=N)N)NC(=O)[C@H](CCC(N)=O)NC(=O)[C@@H](NC(=O)[C@H](C)NC(=O)[C@@H]1CSSC[C@H](NC(=O)[C@@H](N)CCCCNC(=O)CC[C@H](NC(=O)CCCCCCCCCCCCCCCCCCC(=O)O)C(=O)O)C(=O)N[C@@H](CC(N)=O)C(=O)N[C@@H]([C@@H](C)O)C(=O)N[C@@H](C)C(=O)N[C@@H]([C@@H](C)O)C(=O)N1)[C@@H](C)O)C(=O)N1CCC[C@H]1C(=O)N[C@@H](CO)C(=O)N[C@@H](CO)C(=O)N[C@H](C(=O)N[C@@H](CC(N)=O)C(=O)N[C@H](C(=O)NCC(=O)N1CCC[C@H]1C(=O)N[C@@H](CC(N)=O)C(=O)N[C@H](C(=O)N[C@@H](Cc1ccc(O)cc1)C(N)=O)[C@@H](C)O)C(C)C)[C@@H](C)O
notes: also called compound 94
Regarding B3, in assay [1], the IC50 worked out at 148 pM. Besides, the “Ratio hCT/hAmylin funct.” value in assay [2] is 4.5 ratio.

B4: N^α1N^α1-[(4S)-4-carboxy-4-(19-carboxynonadecanoylamino)butanoyl]-[Glu14,Arg17,Pro21,Pro27,Glu35]-h-amylin (peptide)
peptide: {C20 diacid-γGlu}-KCNTATCATQRLAEFLRHSSPNFGAIPSSTNVGSETY-NH2
modifications: disulfide 2-7
SMILES: CC[C@H](C)[C@H](NC(=O)[C@H](C)NC(=O)CNC(=O)[C@H](Cc1ccccc1)NC(=O)[C@H](CC(N)=O)NC(=O)[C@@H]1CCCN1C(=O)[C@H](CO)NC(=O)[C@H](CO)NC(=O)[C@H](Cc1c[nH]cn1)NC(=O)[C@H](CCCNC(=N)N)NC(=O)[C@H](CC(C)C)NC(=O)[C@H](Cc1ccccc1)NC(=O)[C@H](CCC(=O)O)NC(=O)[C@H](C)NC(=O)[C@H](CC(C)C)NC(=O)[C@H](CCCNC(=N)N)NC(=O)[C@H](CCC(N)=O)NC(=O)[C@@H](NC(=O)[C@H](C)NC(=O)[C@@H]1CSSC[C@H](NC(=O)[C@H](CCCCN)NC(=O)CC[C@H](NC(=O)CCCCCCCCCCCCCCCCCCC(=O)O)C(=O)O)C(=O)N[C@@H](CC(N)=O)C(=O)N[C@@H]([C@@H](C)O)C(=O)N[C@@H](C)C(=O)N[C@@H]([C@@H](C)O)C(=O)N1)[C@@H](C)O)C(=O)N1CCC[C@H]1C(=O)N[C@@H](CO)C(=O)N[C@@H](CO)C(=O)N[C@H](C(=O)N[C@@H](CC(N)=O)C(=O)N[C@H](C(=O)NCC(=O)N[C@@H](CO)C(=O)N[C@@H](CCC(=O)O)C(=O)N[C@H](C(=O)N[C@@H](Cc1ccc(O)cc1)C(N)=O)[C@@H](C)O)C(C)C)[C@@H](C)O
notes: also called compound 22
Consider B4, for which the IC50 in assay [1] is 794 pM. Further, in assay [2], the “Ratio hCT/hAmylin funct.” value turned out to be 3.8 ratio.

B5: N^α1-[(4S)-4-carboxy-4-[[(4S)-4-carboxy-4-(19-carboxynonadecanoylamino)butanoyl]amino]butanoyl]-[Glu14,Arg17,Pro21,Pro27,Pro37]-h-amylin (peptide)
peptide: {C20 diacid-γGlu-γGlu}-KCNTATCATQRLAEFLRHSSPNFGAIPSSTNVGSNTP-NH2
modifications: disulfide 2-7
SMILES: CC[C@H](C)[C@H](NC(=O)[C@H](C)NC(=O)CNC(=O)[C@H](Cc1ccccc1)NC(=O)[C@H](CC(N)=O)NC(=O)[C@@H]1CCCN1C(=O)[C@H](CO)NC(=O)[C@H](CO)NC(=O)[C@H](Cc1c[nH]cn1)NC(=O)[C@H](CCCNC(=N)N)NC(=O)[C@H](CC(C)C)NC(=O)[C@H](Cc1ccccc1)NC(=O)[C@H](CCC(=O)O)NC(=O)[C@H](C)NC(=O)[C@H](CC(C)C)NC(=O)[C@H](CCCNC(=N)N)NC(=O)[C@H](CCC(N)=O)NC(=O)[C@@H](NC(=O)[C@H](C)NC(=O)[C@@H]1CSSC[C@H](NC(=O)[C@H](CCCCN)NC(=O)CC[C@H](NC(=O)CC[C@H](NC(=O)CCCCCCCCCCCCCCCCCCC(=O)O)C(=O)O)C(=O)O)C(=O)N[C@@H](CC(N)=O)C(=O)N[C@@H]([C@@H](C)O)C(=O)N[C@@H](C)C(=O)N[C@@H]([C@@H](C)O)C(=O)N1)[C@@H](C)O)C(=O)N1CCC[C@H]1C(=O)N[C@@H](CO)C(=O)N[C@@H](CO)C(=O)N[C@H](C(=O)N[C@@H](CC(N)=O)C(=O)N[C@H](C(=O)NCC(=O)N[C@@H](CO)C(=O)N[C@@H](CC(N)=O)C(=O)N[C@H](C(=O)N1CCC[C@H]1C(N)=O)[C@@H](C)O)C(C)C)[C@@H](C)O
notes: also called compound 14
Consider B5, for which, in assay [1], the IC50 came out at 196 pM. Moreover, the “Ratio hCT/hAmylin funct.” value in assay [2] was determined as 1.6 ratio.
